{
  "source": "the supplement of paper PMC9112550",
  "about": "“Optimization of the antimicrobial peptide Bac7 by deep mutational scanning” (BMC Biology, 2022);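 note: peptides expressed intracellularly from a pBAD plasmid library in pooled LB shake-flask culture, induced with 0.3% L-arabinose, DNA abundance read by NGS, three biological replicates, DESeq2 with apeglm shrinkage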",
  "data": [
    {"test_system": "Escherichia coli TOP10", "assay": "shrunken log2 fold change of peptide-encoding DNA abundance (4.5 h post-induction vs induction); higher = less antimicrobial activity (less host growth inhibition)", "settings": "time post-induction: 4.5 h; library: site-saturation at positions 5, 18, 19, 20", "values": [
      {"sequence": "RRIRCRPPRLPRPRPRPNAPPRP", "shrunken log2 fold change": 0.367},
      {"sequence": "RRIRLRPPRLPRPRPRPEYDPRP", "shrunken log2 fold change": 0.0855},
      {"sequence": "RRIRARPPRLPRPRPRPGWRPRP", "shrunken log2 fold change": 0.473},
      {"sequence": "RRIRTRPPRLPRPRPRPRSPPRP", "shrunken log2 fold change": 0.0437},
      {"sequence": "RRIRVRPPRLPRPRPRPVDYPRP", "shrunken log2 fold change": -0.034},
      {"sequence": "RRIRSRPPRLPRPRPRPEPSPRP", "shrunken log2 fold change": 0.859},
      {"sequence": "RRIRPRPPRLPRPRPRPGGVPRP", "shrunken log2 fold change": 0.567},
      {"sequence": "RRIRTRPPRLPRPRPRPNQWPRP", "shrunken log2 fold change": -0.0389},
      {"sequence": "RRIRYRPPRLPRPRPRPIAWPRP", "shrunken log2 fold change": -0.0381},
      {"sequence": "RRIRHRPPRLPRPRPRPRLSPRP", "shrunken log2 fold change": -0.0962},
      {"sequence": "RRIRIRPPRLPRPRPRPDQGPRP", "shrunken log2 fold change": 0.0651},
      {"sequence": "RRIRLRPPRLPRPRPRPRRNPRP", "shrunken log2 fold change": 0.0956},
      {"sequence": "RRIRRRPPRLPRPRPRPIWWPRP", "shrunken log2 fold change": 0.58},
      {"sequence": "RRIRSRPPRLPRPRPRPIERPRP", "shrunken log2 fold change": -0.23},
      {"sequence": "RRIRSRPPRLPRPRPRPYKNPRP", "shrunken log2 fold change": -0.399},
      {"sequence": "RRIRSRPPRLPRPRPRPWQNPRP", "shrunken log2 fold change": -0.194},
      {"sequence": "RRIRGRPPRLPRPRPRPNTHPRP", "shrunken log2 fold change": 0.102},
      {"sequence": "RRIRGRPPRLPRPRPRPPDCPRP", "shrunken log2 fold change": 1.28},
      {"sequence": "RRIRCRPPRLPRPRPRPAPEPRP", "shrunken log2 fold change": 0.766},
      {"sequence": "RRIRMRPPRLPRPRPRPPKIPRP", "shrunken log2 fold change": 0.45},
      {"sequence": "RRIRNRPPRLPRPRPRPQIAPRP", "shrunken log2 fold change": -0.155},
      {"sequence": "RRIRSRPPRLPRPRPRPAKFPRP", "shrunken log2 fold change": -0.134},
      {"sequence": "RRIRDRPPRLPRPRPRPISFPRP", "shrunken log2 fold change": -0.0563},
      {"sequence": "RRIRVRPPRLPRPRPRPPIYPRP", "shrunken log2 fold change": -0.16},
      {"sequence": "RRIRTRPPRLPRPRPRPWILPRP", "shrunken log2 fold change": -0.23},
      {"sequence": "RRIRIRPPRLPRPRPRPCSHPRP", "shrunken log2 fold change": 0.0454},
      {"sequence": "RRIRERPPRLPRPRPRPDERPRP", "shrunken log2 fold change": 0.109},
      {"sequence": "RRIRVRPPRLPRPRPRPFQLPRP", "shrunken log2 fold change": 0.142},
      {"sequence": "RRIRVRPPRLPRPRPRPQRRPRP", "shrunken log2 fold change": 0.0241},
      {"sequence": "RRIRSRPPRLPRPRPRPHRPPRP", "shrunken log2 fold change": 0.0831},
      {"sequence": "RRIRARPPRLPRPRPRPHSVPRP", "shrunken log2 fold change": 0.0268},
      {"sequence": "RRIRSRPPRLPRPRPRPVEVPRP", "shrunken log2 fold change": 0.233},
      {"sequence": "RRIRVRPPRLPRPRPRPQWFPRP", "shrunken log2 fold change": -0.134},
      {"sequence": "RRIRWRPPRLPRPRPRPSPCPRP", "shrunken log2 fold change": -0.214},
      {"sequence": "RRIRKRPPRLPRPRPRPHYYPRP", "shrunken log2 fold change": -0.0852},
      {"sequence": "RRIRKRPPRLPRPRPRPALMPRP", "shrunken log2 fold change": 0.32},
      {"sequence": "RRIRMRPPRLPRPRPRPCKKPRP", "shrunken log2 fold change": 0.106},
      {"sequence": "RRIRIRPPRLPRPRPRPDVFPRP", "shrunken log2 fold change": -0.115},
      {"sequence": "RRIRCRPPRLPRPRPRPEKFPRP", "shrunken log2 fold change": 0.0607},
      {"sequence": "RRIRARPPRLPRPRPRPHMQPRP", "shrunken log2 fold change": 2.87},
      {"sequence": "RRIRLRPPRLPRPRPRPTKEPRP", "shrunken log2 fold change": -0.0767},
      {"sequence": "RRIRFRPPRLPRPRPRPYPGPRP", "shrunken log2 fold change": 0.00399},
      {"sequence": "RRIRWRPPRLPRPRPRPKMTPRP", "shrunken log2 fold change": 0.175},
      {"sequence": "RRIRKRPPRLPRPRPRPSEAPRP", "shrunken log2 fold change": 0.401},
      {"sequence": "RRIRCRPPRLPRPRPRPMLMPRP", "shrunken log2 fold change": 0.0436},
      {"sequence": "RRIRSRPPRLPRPRPRPVGIPRP", "shrunken log2 fold change": -0.012},
      {"sequence": "RRIRARPPRLPRPRPRPMKKPRP", "shrunken log2 fold change": 0.143},
      {"sequence": "RRIRNRPPRLPRPRPRPNLGPRP", "shrunken log2 fold change": -0.00992},
      {"sequence": "RRIRDRPPRLPRPRPRPFGDPRP", "shrunken log2 fold change": -0.0062},
      {"sequence": "RRIRTRPPRLPRPRPRPLYKPRP", "shrunken log2 fold change": -0.274},
      {"sequence": "RRIRNRPPRLPRPRPRPGFEPRP", "shrunken log2 fold change": 0.123},
      {"sequence": "RRIRVRPPRLPRPRPRPHATPRP", "shrunken log2 fold change": 0.204},
      {"sequence": "RRIRTRPPRLPRPRPRPPMSPRP", "shrunken log2 fold change": -0.0702},
      {"sequence": "RRIRHRPPRLPRPRPRPRVEPRP", "shrunken log2 fold change": 0.0973},
      {"sequence": "RRIRARPPRLPRPRPRPNPNPRP", "shrunken log2 fold change": 0.187},
      {"sequence": "RRIRPRPPRLPRPRPRPWFFPRP", "shrunken log2 fold change": -0.185},
      {"sequence": "RRIRERPPRLPRPRPRPDLRPRP", "shrunken log2 fold change": -0.076},
      {"sequence": "RRIRWRPPRLPRPRPRPWHAPRP", "shrunken log2 fold change": 0.0362},
      {"sequence": "RRIRARPPRLPRPRPRPMNVPRP", "shrunken log2 fold change": -0.163},
      {"sequence": "RRIRARPPRLPRPRPRPTYHPRP", "shrunken log2 fold change": -0.225},
      {"sequence": "RRIRSRPPRLPRPRPRPNDEPRP", "shrunken log2 fold change": -0.276},
      {"sequence": "RRIRARPPRLPRPRPRPHFDPRP", "shrunken log2 fold change": 0.22},
      {"sequence": "RRIRMRPPRLPRPRPRPYQNPRP", "shrunken log2 fold change": 0.0826},
      {"sequence": "RRIRKRPPRLPRPRPRPYGQPRP", "shrunken log2 fold change": -0.306},
      {"sequence": "RRIRDRPPRLPRPRPRPQMRPRP", "shrunken log2 fold change": -0.0122},
      {"sequence": "RRIRHRPPRLPRPRPRPHSYPRP", "shrunken log2 fold change": -0.191},
      {"sequence": "RRIRARPPRLPRPRPRPYHMPRP", "shrunken log2 fold change": 0.00865},
      {"sequence": "RRIRDRPPRLPRPRPRPPVMPRP", "shrunken log2 fold change": -0.435},
      {"sequence": "RRIRIRPPRLPRPRPRPFTMPRP", "shrunken log2 fold change": -0.79},
      {"sequence": "RRIRFRPPRLPRPRPRPIWMPRP", "shrunken log2 fold change": -0.226},
      {"sequence": "RRIRTRPPRLPRPRPRPWDRPRP", "shrunken log2 fold change": -0.105},
      {"sequence": "RRIRFRPPRLPRPRPRPYQEPRP", "shrunken log2 fold change": -0.0819},
      {"sequence": "RRIRTRPPRLPRPRPRPETYPRP", "shrunken log2 fold change": -0.275},
      {"sequence": "RRIRHRPPRLPRPRPRPFGQPRP", "shrunken log2 fold change": -0.162},
      {"sequence": "RRIRPRPPRLPRPRPRPLGNPRP", "shrunken log2 fold change": -0.173}
    ]}
  ]
}
